For series [1], the system named is Tryptophan aptamer, Light-up construct (RNA, aptamer) GGGAACGUCUCCGAGUAGGAGACGAAGGGAGAGUGGCAGCUUACAAACUACAGUUGCGGCCGCCACUGCGAAGGACGGGUCCCUCGAAAGAGGUUGAGUAGAGUGUGAGCGCAGGACCGGGCAACAGUAGUAAGUGGGCUGUUGCUUUUCCAAGCUUAUCGAGUAGAUAAGCAAAAAGAAACAACAACAACAAC
As to the kind of experiment: DMS chemical mapping. The conditions noted are these: 5 mM MgCl2, 1x PBS, pH 6.1, 24 °C.

Series [2] concerns BH_E029 (RNA, aptamer) GGGAGAGUGGCAGCUUACAACGUAACGAUGCGGCCGCCACUGAUCCGACUGGUUAACAGAAAGUCCUGACCAGGUAACGAAUGGUCAGGACCGGGCAUUGUUACGAAGUGGGCUGUUGCUUUUCC
As to the kind of experiment: light-up fluorescence kinetics (malachite green). The conditions noted are these: 5 mM MgCl2, 1x PBS, pH 6.1, 2.4 mM Trp with malachite green present.

Series [3] relates to Tryptophan aptamer, RNA-MaP condition construct (RNA, aptamer) GGAAAGGCGAGCGGCCGCCACUGUUCGCAGGACCGGGCUCGCCAAAGAAACAACAACAACAAC
The series is described as follows: DMS chemical mapping. The conditions noted are these: 80 mM KCl, 4 mM MgCl2; 100 mM Tris-HCl, pH 7.5, 37 °C.

The target in series [4] is T1, MS2 coat protein, dlFG mutant (Escherichia phage MS2, UniProt P03612, del68-81insG). As to the kind of experiment: 4 mM Mg2+; no ligand; RNA-MaP array; 100 mM Tris-HCl pH 7.5, 80 mM KCl, 4 mM MgCl2, 0.1 mg/mL BSA, 1 mM DTT, 0.01 mg/mL yeast tRNA, 0.01% Tween-20; protein 1.5 nM to 3 uM; 37 C (Table S3). The conditions noted are these: chain copies: 2; label: tethered by stalled RNA polymerase.

Series [5] concerns the target T1, MS2 coat protein, dlFG mutant. As to the kind of experiment: 4 mM Mg2+; FMN 200 uM; RNA-MaP array; 100 mM Tris-HCl pH 7.5, 80 mM KCl, 4 mM MgCl2, 0.1 mg/mL BSA, 1 mM DTT, 0.01 mg/mL yeast tRNA, 0.01% Tween-20; protein 1.5 nM to 3 uM; 37 C (Table S3). The conditions noted are these: chain copies: 2; label: tethered by stalled RNA polymerase.
For series [6] the target is unchanged. As to the kind of experiment: 4 mM Mg2+; L-tryptophan 2.4 mM; RNA-MaP array; 100 mM Tris-HCl pH 7.5, 80 mM KCl, 4 mM MgCl2, 0.1 mg/mL BSA, 1 mM DTT, 0.01 mg/mL yeast tRNA, 0.01% Tween-20; protein 1.5 nM to 3 uM; 37 C (Table S3). The conditions noted are these: chain copies: 2; label: tethered by stalled RNA polymerase.
Series [7] has the same target. The series is described as follows: 4 mM Mg2+; theophylline 2 mM; RNA-MaP array; 100 mM Tris-HCl pH 7.5, 80 mM KCl, 4 mM MgCl2, 0.1 mg/mL BSA, 1 mM DTT, 0.01 mg/mL yeast tRNA, 0.01% Tween-20; protein 1.5 nM to 3 uM; 37 C (Table S3). The conditions noted are these: chain copies: 2; label: tethered by stalled RNA polymerase.

A word on the Kd: it is the concentration at which binding is half-saturated. A higher Kd goes with weaker binding.

For the molecule `N[C@@H](Cc1c[nH]c2ccccc12)C(=O)O`, the figures for the Kd in series [1] and in series [3] were 11.59 ± 9.49/-5.00 μM and 12.09 ± 10.50/-5.19 μM, respectively. The binding result in series [2] was “yes”.

B1: Eterna 7716240 (Exclusion - Theophylline B) (ssRNA)
RNA: GGUUUAUAAGAGGAUACCAGUACAAAUAAAGUACAUUAAUAGUAGAGUGAUGUUCUAAAGUACCCUUGGCAGCUUAGAUUAAGUU
B1 displayed a Kd in series [4] of more than 3000 nM.

B2: Eterna 1186 (Exclusion - Theophylline B) (ssRNA)
RNA: GAUAGUUAGAGAGAUACCAGCGAUACCUAGAUGGAAAGUGAUGUUCGCCAUCAAUUGCACCGCCCUUGGCAGCUCUCUCUUUGCU
B2: in series [4], the Kd is more than 3000 nM.

B3: Eterna 6103763 (Same State NG 3) (ssRNA)
RNA: CAUUGACGACAAUUACAUGAGGAUCACCCAUGUUUUGGGAUGCAGGAUAUGUGGUAUAUUAAUUAACAGAAGGGCAAUAAUUUU
B3: the Kd in series [5] worked out at 35.5 nM.

B4: Eterna 7684838 (Same State - Theophylline A) (ssRNA)
RNA: AAAUUUAAUAUAUUUAAAUAAAUAUGUGAUACCAGACAUUUAUAAGUCCCUUGGCAGCACAAUGCAGUGAUGUUGCUUAUAAUAA
In series [4], B4 had a Kd of more than 3000 nM.

B5: Eterna 6120937 (Same State NG 1) (ssRNA)
RNA: GCCAUCACAUGAGGAUAUGGCACCGUUUCGGUGCCAGAAGGCAUGUCAUAAGACAUGAGGAUCACCCAUGUAGUUAAGAUGGCA
B5 returned a Kd in series [4] of 922 nM.

B6: Eterna 7742068 (Same State - Tryptophan B) (ssRNA)
RNA: AGUACAAUGGCGGCCGCCACUCAACGCAGAUCAAAGAUCUGCGUUCACUCAGUGAUGUUGAGUGAGAGGACCGGGCCUUUGUACA
With B6, the Kd in series [4] is more than 3000 nM.

B7: Eterna 7691283 (Same State - Arginine B) (ssRNA)
RNA: AUUCUAUUGUGAAGGAGCGCGACUAGUAGUGAUGUUACUAUAUGACUUUAGUCUUAAUUCUCGCAGGUAGGUCGCACAAUAUAUA
In series [4], B7 registered a Kd of more than 3000 nM.

B8: Eterna 7739799 (Exclusion - Arginine A) (ssRNA)
RNA: CAGACCACAGAGUGAUGUUCUGUGUCCGAAGGAGCGCGCGAGAGCGCAGGUAGGUCGCGGAUACAGUUGACGUACCUUCAAGACA
On to B8, for which the Kd in series [4] was more than 3000 nM.

B9: Eterna 7740606 (Exclusion - Theophylline A) (ssRNA)
RNA: AAGUCUCGUUAAUUCGAGGUUACGAUCGAUACCAGUAGCGAGAGGUACCCUUGGCAGCGAAGUGAGUGAUGUUCAUGAAAGAAGA
B9 showed a Kd in series [4] of more than 3000 nM.

B10: Eterna 1699 (Same State - Theophylline B) (ssRNA)
RNA: UCGCAUUAACCGGAUACCAGCUUAGUGGGAUCUUCAAUCCGACAGAAAGUGAUGUUUUCUAGCCCUUGGCAGCCGAGAUUAUCAC
Take B10: the Kd in series [4] is more than 3000 nM.

B11: Eterna 7727518 (Exclusion - Tryptophan B) (ssRNA)
RNA: GUUUUGGGAUCGGCCGCCACUACAUGAGGAUCACCCAUGUGGACAAAUAGGGUUUUUAAGCUCGGUAGGACCGGGAUUCGAACAU
As for B11, the affinity in series [6], expressed as Kd, was 67.5 nM. Consider UUUGGGCAGUGAUGUUGCCCCUUU (ssRNA) [Eterna 7 (K4-TR_control)], for which, in series [4], the Kd was more than 3000 nM.

B12: Eterna 7686162 (Exclusion - FMN A) (ssRNA)
RNA: UACAUAUAAUUAUUUCUACAUUUAUUUAGUCAGGAUAUCGAUUAAACGAGAAGGGACAAUAUCAAGUGAUGUUUGAUAAUUCAAA
Consider B12, for which, in series [4], the Kd is more than 3000 nM.

B13: Eterna 7646211 (Same State - Theophylline A) (ssRNA)
RNA: CAUACUUUAGUAUGUAAUGUGGACAGUGAUACCAGAUACGAAAGUAUCCCUUGGCAGCACAACAUGAGGAUCACCCAUGUAUUUU
B13 came in with a Kd in series [7] of 13.4 nM. In other words, the double-digit nanomolar range.

B14: Eterna 1179 (Exclusion - Theophylline B) (ssRNA)
RNA: CACCCAGUCCUCGAUACCAGACUGGCACGUCAAAAGGUCCAGUGAUGUUGAGCCUAACAAGUCCCUUGGCAGCGACCAGUGUAUU
With B14, the Kd in series [4] was more than 3000 nM.

B15: Eterna 7614506 (Exclusion - Tryptophan A) (ssRNA)
RNA: UAUAUAUAUCACGAACUGUGGUGUAUGUCUCGAGGACCGGUACGGCCGCCACUCGCGCGGCCUCACAUGAGGAUCACCCAUGUUG
The molecule B15 had a Kd in series [6] of 46 nM.

B16: Eterna 1729 (Same State - Tryptophan A) (ssRNA)
RNA: GGAGUCCCGUUAGAUUGUGUAGAUACAAGACGAGGACCGGUACGGCCGCCACUCGCCAUCGUCCAGUGAUGUUGGGCGUCACGGG
Take B16: the Kd in series [4] is more than 3000 nM.

B17: Eterna 7700218 (Same State - Theophylline A) (ssRNA)
RNA: UGGUUAAGCAGUGAUGUUGCAAGUGAUGAUACCAGUUAAGAAGAGAACCCUUGGCAGCAUAAAGUGCGCUCUGAUGAGUGUGCUU
Molecule B17 had a dissociation constant (Kd) in series [4] of more than 3000 nM.

B18: Eterna 7698835 (Same State - Arginine B) (ssRNA)
RNA: GCUAUGGUAGGAAGGAGCGCUUAUUUAUUUUUACGAGUGAUGUUCGGUAGUAGAUAGUUAAAGCAGGUAGGUCGCCUACUAUAGC
Consider B18, for which the Kd in series [4] is more than 3000 nM.
